In patent US20040248178A1 (GENERAL HOSPITAL, published 2004):

Biological target: the molecule itself
Assay: transmission electron microscopy after rotary shadowing (self-association)

B1: Recombinant mouse β-netrin lacking the C domain, with His tag (rβ-NΔC+His) (ligand)
chain: GLNGVAGANSRCEKACNPRMGNLALGRKLRADTMCGQNATELFCFYSENADLTCRQPKCDKCNAAHSHLAHPPSAMADSSFRFPRTWWQSAEDVHREKIQLDLEAEFYFTHLIMVFKSPRPAAMVLDRSQDFGKTWKPYKYFATNCSATFGLEDDVVKKGAICTSRYSNPFPCTGGEVIFRALSPPYDIENPYSAKVQEQLKITNLRVRLLKRQSCPCQINDLNAKPHHFMHYAVYDFIVKGSCFCNGHADQCLPVEGFRPIKAPGAFHVVHGRCMCKHNTAGSHCQHCAPLYNDRPWEAADGRTGAPNECRTCKCNGHADTCHFDVNVWEASGNRSGGVCNNCQHNTEGQHCQRCKPGFYRDLRRPFSAPDACKACSCHPVGSAILPFSSVTFCDPSNGDCPCKPGVAGPHCDRCMVGYWGFGDYGCRPCDCAGSCDPLTGDCISSNADVDWY
notes: also called rβ-NAC+His; rβ-netrin ΔC; not shown: six histidine tag followed by a thrombin cleavage site
B1: no binding.
